# According to paper PMC11176301 (2024):
# T1: GAD65 peptide on HLA-DRA*01:01 / HLA-DRB1*04:01 (human)
# T1 peptide: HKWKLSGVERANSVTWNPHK
# T2: Influenza A MP54 (influenza M protein) peptide on HLA-DRA*01:01 / HLA-DRB1*04:01 (human)
# T2 peptide: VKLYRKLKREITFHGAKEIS
# B1: Clone 81 (TCR)
# alpha TRAV29DV5 TRAJ45 CDR3: CAASRYSGGGADGLTF
# beta TRBV12-4 TRBJ1-1 CDR3: CASSPQGGNTEAFF
# B2: Clone 566 (TCR)
# alpha TRAV29DV5 TRAJ45 CDR3: CAASRYSGGGADGLTF
# beta TRBV12-4 TRBJ1-1 CDR3: CASSVQGGNTEAFF
# B3: P196-1 (TCR)
# alpha TRAV29DV5 TRAJ45 CDR3: CAASRYSGGGADGLTF
# beta TRBV12-4 TRBJ1-1 CDR3: CASSLQGGNTEAFF
# What was measured:
# [1] = target: T1, GAD65 peptide on HLA-DRA*01:01 / …; assay: proliferation
# [2] = target: T2, Influenza A MP54 (influenza M protein) …; assay: proliferation
# [3] = target: T2, Influenza A MP54 (influenza M protein) …; assay: activation reporter or marker
Binder,binding result [1],binding result [2],binding result [3]
B1,recognises,recognises,–
B2,recognises,recognises,–
B3,recognises,–,recognises
